The values below are quoted from earlier work in article PMC4264850.

As usually defined, the Kd is the free concentration of one partner at which half of the binding sites on the other are occupied at equilibrium, for simple one-to-one binding.

In the series the target is EGFR (Homo sapiens) (UniProt P00533).

As to matuzumab, the dissociation constant Kd was 0.34 nM.
